Where a chain is given by its changes, count along the chain named.
B1: PD-L1 binding agent 1 (antibody, V domains shown)
VH: QVQLVQSGAEVKKPGASVKVSCKASGYTFSSDYMHWVRQAPGQGLEWMGWMSPYNGITGYAQKFQGRVTMTRDTSTSTVYMELSSLRSEDTAVYYCARDRFSGSYDYWGQGTLVTVSS
VL: not shown
B2: PD-L1 binding agent 4 (antibody, V domains shown)
VH: QVQLVQSGAEVKKPGSSVKVSCKASGYTFTGYYIHWVRQAPGQGLEWMGGIIPIFGTASYAQKFQGRVTITADESTSTAYMELSSLRSEDTAVYYCARDGRFWSGYPDYWGQGTLVTVSS
VL: DIQMTQSPSSLSASVGDRVTITCRASQGISNYLAWYQQKPGKAPKLLIYRASNLESGVPSRFSGSGSGTDFTLTISSLQPEDFATYYCQQSYSTPLTFGGGTKVEIK
B3: PD-L1 binding agent 9 (antibody, V domains shown)
VH: QVQLVQSGAEVKEPGASVKVSCKASGYTFTDHYLHWVRQAPGQGLEWMGWMNPNIGNTGYAQKFQGRVTMTRDTSTSTVYMELSSLRSEDTAVYYCAREPLQLGGFDYWGQGTLVTVSS
VL: B2 VL with Q27E, G28S, N31S, Y32W, R50A, N53S, E55Q, G100Q, V104L
B4: PD-L1 binding agent 11 (antibody, V domains shown)
VH: QVQLVQSGAEVKKPGASVKVSCKASGYTFTGYYMHWVRQAPGQGLEWMGWMNPNSGNTGYAQKFQGRVTMTRDTSTSTVYMELSSLRSEDTAVYYCARDSWYGDWFDPWGQGTLVTVSS
VL: B2 VL with G28S, I29V, S30G, N31S, Y32W, R50G, N53S, E55Q
B5: PD-L1 binding agent 10 (antibody, V domains shown)
VH: QVQLVQSGAEVKKPGASVKVSCKASGYTFTGYYMHWVRQAPGQGLEWMGWMNPNGGTTGYAQNFQGRVTMTRDTSTSTVYMELSSLRSEDTAVYYCAREGFGPNAFDIWGQGTTVTVSS
VL: B2 VL with G28S, N31S, Y32W, R50A, E55Q, S91Y, L96Y, G100Q
B6: PD-L1 binding agent 14 (antibody, V domains shown)
VH: QVQLVQSGAEVKKPGASVKVSCKASGYNFSAYYVHWVRQAPGQGLEWMGWMNPNRGITDSAQKFQGRVTMTRDTSTSTVYMELSSLRSEDTAVYYCAREAYVAAFDIWGQGTTVTVSS
VL: B2 VL with N31S, Y32W, R50A, N53S, E55Q
B7: PD-L1 binding agent 6 (antibody, V domains shown)
VH: QVQLVQSGAEVKKPGASVKVSCKASGYTFTSHDINWVRQAPGQGLEWMGWMNPNSGNTGYAQKFQGRVTMTRDTSTSTVYMELSSLRSEDTAVYYCARDRWYMGSADYWGQGTLVTVSS
VL: B2 VL with G28S, N31T, Y32W, R50A, N53T, E55Q, L96F, G100Q
B8: PD-L1 binding agent 5 (antibody, V domains shown)
VH: QVQLVQSGAEVKKPGASVKVSCKASGYTFSTHYMHWVRQAPGQGLEWMGWMNPNSGHAGSAQKFQGRVTMTRDTSTSTVYMELSSLRSEDTAVYYCARESIAVAGYDYWGQGTLVTVSS
VL: B2 VL with G28S, N31S, Y32W, R50A, N53T, E55Q, S56R, L96Y, G100Q, V104L
B9: PD-L1 binding agent 7 (antibody, V domains shown)
VH: B4 VH with G31S, S100D, Y102G
VL: DIQMTQSPSSLSASVGDRVTITCQASQDISNHLNWYQQKPGKAPKLLIYGASNLQRGVPSRFSGSGSGTDFTLTISSLQPEDFATYYCQQSYSTPITFGQGTRLEIK
B10: PD-L1 binding agent 3 (antibody, V domains shown)
VH: QVQLVQSGAEVKKPGASVKVSCKASGYTFSSYYMHWVRQAPGQGLEWMGWMTTNSGITGYAQKFQGRVTMTRDTSTSTVYMELSSLRSEDTAVYYCAREGYSSGLDYWGQGTLVTVSS
VL: not shown
B11: PD-L1 binding agent 15 (antibody, V domains shown)
VH: QVQLVQSGAEVKKPGASVKVSCKASGYTFTRHYVHWVRQAPGQGLEWMGWMNPNSGSAGYAQKFQGRVTMTRDTSTSTVYMELSSLRSEDTAVYYCARERGYNAFDYWGQGTLVTVSS
VL: EIVMTQSPATLSVSPGERATLSCRASQSLSSSYLAWYQQKPGQAPRLLIYGASTRATGIPARFSGSGSGTEFTLTISSLQSEDFAVYYCHQYFTTPLTFGQGTRLEIK
B12: PD-L1 binding agent 16 (antibody, V domains shown)
VH: QVQLVQSGAEVKKPGASVKVSCKASGYTLPNYIHWVRQAPGQGLEWMGWIHPRSGATGYAPKFQGRVTMTRDTSTSTVYMELSSLRSEDTAVYYCARDSVFGLDYWGQGTLVTVSS
VL: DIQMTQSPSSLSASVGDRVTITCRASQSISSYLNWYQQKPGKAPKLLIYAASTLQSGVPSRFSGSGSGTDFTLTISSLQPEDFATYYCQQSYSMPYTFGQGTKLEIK
B13: 12 (antibody, V domains shown)
VH: QVQLVQSGAEVKKPGASVKVSCKASGYTFTGYYMHWMRQAPGQGLEWIGWMSPYNGITGYAQKFQGRVTMTRDTSTSTVYMELSSLRSEDTAVYYCAREVIEVGMDVWGQGTTVTVSS
VL: B9 VL with Q24R, D28S, N31S, H32W, N34A, G50A, N53H, R56S, I96Y
B14: 13 (antibody, V domains shown)
VH: QVQLVQSGAEVKKPGASVKVSCKASGYTFTNYYMHWVRQAPGQGLEWMGWMSPSSGITGYAQKFQGRVTMTRDTSTSTVYMELSSLRSEDTAVYYCAREAWFGELSTWGQGTLVTVSS
VL: B2 VL with G28N, Y32F, A34N, R50A, N53S, E55Q, T94L, L96Y, G100Q
B15: 49 (antibody, V domains shown)
VH: B3 VH with E13K, M51I
VL: B2 VL with Q27E, G28S, N31S, Y32W, R50A, N53S, E55Q, G100Q, V104L
B16: 46 (antibody, V domains shown)
VH: B8 VH with M51I
VL: B9 VL with Q24R, D28S, N31S, H32W, N34A, G50A, N53T, I96Y, R103K
B17: 47 (antibody, V domains shown)
VH: B5 VH with M51I, G55S
VL: B2 VL with G28S, N31S, Y32W, R50A, E55Q, S91Y, L96Y, G100Q
B18: 48 (antibody, V domains shown)
VH: B4 VH with G31S, M51I, S100D, Y102G, P108Y
VL: B9 VL
B19: 45 (antibody, V domains shown)
VH: B10 VH with M51I
VL: not shown

Biological target: PD-L1 on CHO-K1/PD-L1/alphaAPC stimulator cells (UniProt Q9NZQ7 19-290, limits assumed)
Sequence (Q9NZQ7 19-290 limits assumed): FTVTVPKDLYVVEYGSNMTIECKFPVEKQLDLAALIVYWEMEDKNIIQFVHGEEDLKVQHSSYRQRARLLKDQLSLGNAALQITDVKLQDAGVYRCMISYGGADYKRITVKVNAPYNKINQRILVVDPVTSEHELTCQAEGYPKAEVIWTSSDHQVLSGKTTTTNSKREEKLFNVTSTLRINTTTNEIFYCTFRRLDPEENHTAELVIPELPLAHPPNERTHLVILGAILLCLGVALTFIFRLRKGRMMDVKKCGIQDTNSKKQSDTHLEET
Assay: cell-based or functional assay

B1 and B2 are within 1.5-fold of each other in “PD-L1/PD-1 blockade EC50 (nM)” value: 0.74 nM for the first, 0.85 nM for the second.

Going from B3 to B4, the “PD-L1/PD-1 blockade EC50 (nM)” value falls from 0.67 nM to 0.37 nM (1.8-fold).

Compared with B5, B6 is 2.4-fold higher in “PD-L1/PD-1 blockade EC50 (nM)” value: 0.47 nM for the first, 1.15 nM for the second.

First: B7
Second: B8
The “PD-L1/PD-1 blockade EC50 (nM)” value of the first is 2-fold higher: 0.73 nM for the first, 0.37 nM for the second.

First: B9
Second: B10
The “PD-L1/PD-1 blockade EC50 (nM)” value of the first is 2.2-fold higher: 0.73 nM for the first, 0.33 nM for the second.

B11 and B12 are within 1.5-fold of each other in “PD-L1/PD-1 blockade EC50 (nM)” value: 1.13 nM for the first, 1.25 nM for the second.

B1 and B2 are within 1.5-fold of each other in “PD-L1/PD-1 blockade EC50 (ng/ml)” value: 106 ng/mL for the first, 124 ng/mL for the second.

Compared with B3, B4 is 1.8-fold lower in “PD-L1/PD-1 blockade EC50 (ng/ml)” value: 97.3 ng/mL for the first, 53.6 ng/mL for the second.

Going from B5 to B6, the “PD-L1/PD-1 blockade EC50 (ng/ml)” value rises from 67.4 ng/mL to 166 ng/mL (2.5-fold).

Going from B7 to B8, the “PD-L1/PD-1 blockade EC50 (ng/ml)” value falls from 106 ng/mL to 54.3 ng/mL (2-fold).

First: B9
Second: B10
The “PD-L1/PD-1 blockade EC50 (ng/ml)” value of the first is 2.2-fold higher: 106 ng/mL for the first, 47.3 ng/mL for the second.

B11 and B12 are within 1.5-fold of each other in “PD-L1/PD-1 blockade EC50 (ng/ml)” value: 164 ng/mL for the first, 181 ng/mL for the second.

Biological target: T1, human PD-L1 (hPD-L1), endogenous on JIMT-1 cells (human, UniProt Q9NZQ7 19-290)
T1 construct: The assay used endogenous hPD-L1 on JIMT-1 cells; also called programmed death-ligand 1; CD274
T1 sequence (Q9NZQ7 19-290 limits assumed): as above
Assay: flow cytometry, JIMT-1 cells with endogenous hPD-L1, fluorescent anti-human IgG Fc secondary, geometric MFI
Experimental: Diluted binding agents were applied to JIMT-1 cells (˜1×10⁵-2×10⁵ per well) and incubated at 4° C. […] After unbound secondary antibody was washed out, cells were resuspended in FACS buffer plus 2% formaldehyde and analyzed by flow cytometry.

B13: binds.
B14: binds.
B15: binds.
B16: binds.
B17: binds.
B18: binds.
B19: binds.

— patent US20230069055A1 (BOLT BIOTHERAPEUTICS, published 2023)
